Measured values: patent US11672867B2, “Protein-templated self-assembly of a covalent polymer network for intracellular trafficking and traceless release” (University of Massachusetts, priority 2017, dated 2023)

B1: ribonuclease A (protein, UniProt P61823 27-150, looked up)
Ribonuclease pancreatic: KETAAAKFERQHMDSSTSAASSSNYCNQMMKSRNLTKDRCKPVNTFVHESLADVQAVCSQKNVACKNGQTNCYQSYSTMSITDCRETGSSKYPNCAYKTTQANKHIIVACEGNPYVPVHFDASV
notes: native protein from Sigma-Aldrich, model cargo
B2: NA-RNaseA^PEG: RNase A conjugated to polymer P1 and crosslinked with (PEO)4-bis-amine; nanoassembly (conjugate, UniProt P61823 27-150, looked up)
Ribonuclease pancreatic: B1 Ribonuclease pancreatic
modifications: polymer P1 conjugate, PEO4-bis-amine crosslinked nanoassembly
notes: RNase A conjugated to polymer P1 and crosslinked with (PEO)4-bis-amine; nanoassembly
B3: NA-RNaseA^ED: RNase A conjugated to polymer P1 and crosslinked with ethylenediamine; nanoassembly (conjugate, UniProt P61823 27-150, looked up)
Ribonuclease pancreatic: B1 Ribonuclease pancreatic
modifications: polymer P1 conjugate, ethylenediamine-crosslinked nanoassembly

Columns and labels:
[1] = system: HeLa cells; assay: Cell viability with alamarBlue assay; type: cell-based, Human; details: 72 h
Method: Human cervical carcinoma (HeLa) cells were cultured in T75 cell culture flask containing Dulbecco's Modified Eagle Medium/Nutrient Mixture F-12 (DMEM/F12) in a humidified incubator with 5% CO2 at 37° C. Culture media was supplemented with 10% fetal bovine serum (FBS), 1% L-glutamine and 1% antibiotic-antimycotic (100 units/mL of penicillin, 100 μg/mL of streptomycin, and 0.25 μg/mL of Amphotericin B).
HeLa cells were seeded into 96-well tissue culture plates at a density of 5000 cells/well/100 μL sample and incubated at 37° C. After 24 h, culture media was replaced and cells were treated with different concentrations of protein-polymer conjugates and control protein samples (0.1 mg/mL to 2 mg/mL protein concentration) in 100 μL media. All samples were incubated for 6 h at 37° C., then the media was replaced and incubated for another 66 h at 37° C. Afterwards media was replaced, washed with PBS buffer for three times and each well was treated with 100 μL 10% alamarBlue in media with serum. Finally, samples were incubated for 1 h and subjected to fluorescence measurement with SpectraMax® M5 at 560 nm excitation/590 nm emission wavelength in a black 96-well flat bottomed plate. Cellular viability of the small molecule byproducts were assessed using a similar protocol.

[2] = Dynamic light scattering particle size; type: physicochemical; details: 1 mg/mL, phosphate buffer pH 7.4
Method: (§1) Dynamic light scattering (DLS) and zeta potential measurements were performed using a Malvern Nanozetasizer-ZS. All samples were diluted with phosphate buffer pH 7.4 to adjust final concentration to 1 mg/mL.

[3] = Release kinetics of proteins from nanoassemblies (DTT, SDS-PAGE); details: reducing conditions (DTT)
Method: 30 μL of different samples containing NA-Empty^ED, NA-Empty^PEG, NA-Lys^ED, NA-Lys^PEG, NA-RNaseA^ED, NA-RNaseA^PEG, NA-CytC^ED and NA-CytC^PEG were mixed with 10 μL of loading buffer (DTT free) and 25 μL of each sample was loaded on acrylamide gel. For release experiment, identical protein-polymer conjugate samples were treated with 10 mM DTT and incubated at 37° C. for 4 h before subjecting to acrylamide gel electrophoresis. To calculate the amount of released protein from each sample, standard curves were generated from the known concentrations of pure protein samples loaded into the gel lanes. The gel image analysis and quantification were performed with Bio-Rad Image Lab™ software.
To monitor the release kinetics of proteins (lysozyme, RNase A and cytochrome C), 30 μL of NA-Lys^ED, NA-Lys^PEG, NA-RNaseA^ED, NA-RNaseA^PEG, NA-CytC^ED and NA-CytC^PEG samples were incubated at 37° C. with requisite amounts of 10 mM DTT for different time intervals. After each incubation time, samples were collected and immediately frozen at −20° C. Finally, all samples were subjected to SDS-PAGE analysis to quantify the amount of released proteins. Encapsulation and release studies with variations in DTT concentrations and crosslinker concentrations were carried out using similar experimental protocols.

[4] = Zeta potential measurement; type: physicochemical; details: 1 mg/mL, phosphate buffer pH 7.4
Method: as §1

[5] = Calculation of number of proteins per particle; type: physicochemical; details: from DLS diameters, sphere packing efficiency ~74%
From the text: Calculation of Number of Proteins Per Particle: Example for NA-Lys^ED: Diameter of nanoassembly, D=9.7 nm, radius, R=4.85 nm Volume of each particle, VPPC=(4/3)πR^3=(4/3) π(4.85)^3 nm^3=477.6×10^−21 cm^3 Again, for lysozyme, diameter of protein, d=3.6 nm, radius, r=1.8 nm Volume of each protein, VLy=(4/3)πr^3=(4/3) π(1.8)^3 nm^3=24.4×10^−21 cm^3 Assuming that maximum sphere packing efficiency to be ˜74%,^ii number of lysozyme per nanoassembly to be=(477.6×10^−21/24.4×10^−21)×(0.74)=14 The results for all other nanoassemblies are summarized below: […]

[6] = Encapsulation efficacy and loading capacity (Pierce 660 nm Protein Assay of filtrate); type: physicochemical; details: for Amount of protein encapsulated, μg (Initial dose = 1 mg): 10 mg P1, 1 mg protein, back-calculated from filtrate
Method: All nanoassemblies were evaluated for amount of protein encapsulation after conjugation and cross-linking process. Protein concentration in each sample was measured from the filtrate after crosslinking reaction and the amount of protein was back-calculated in the conjugate. An absorbance based assay (with Pierce™ 660 nm Protein Assay Reagent) was utilized to quantify the protein amount. The encapsulation efficiency (EE) and loading capacity (LC) were calculated based on the following formulas: […]

[7] = Crosslinking density from released 4-nitrophenol (UV-Vis, 400 nm); type: physicochemical; details: adjusted for ~1% hydrolysis of control polymer
Method: The conjugation process and cross-linking density for the protein-polymer conjugates can be evaluated by UV-Vis spectroscopy. The amount of released 4-nitrophenol was monitored at its λmax 400 nm (measured molar extinction co-efficient≈12.14*10^3 L M^−1 cm^−1 at 400 nm). For each absorbance measurement, samples were diluted to twenty times, for e.g. 50 μL of sample was diluted 1 mL with distilled water. Cross-linking density was calculated by assuming that formation of a single chain crosslinking bond would require cleavage of two NPC units and produce two 4-nitrophenol molecules.
Ratio of NPC:PEG in the polymer, P1=50:50
Molecular weight of repeating NPC-unit=387 g/mol
Amount of polymer used=0.1 mg/mL for each absorbance measurement
From Beer-lamber's law: A=ε.c.1 and path-length=1 cm
Thus, moles of 4-nitro phenol in 1 mL solution=3.04*10^−8
This represents is 23.5 mol % of total NPC unit. As it is assumed that two 4-nitro phenol are released per crosslinking bond formation and NPC unit is 50 mol % of total polymer. Therefore, crosslinking density=23.5/2*0.5=5.9%
Hydrolysis from control polymer sample contributes ˜1% towards cross-linking density and adjusted for all calculations. Crosslinking densities for all other conjugates were calculated based on the above method and summarized below: […]

| Molecule | Cell viability [1] | Size, nm (hydrodynamic diameter, DLS) [2] | Size, nm (hydrodynamic diameter, DLS) ([2]; listed as native CytC) | Order of overall kinetics of protein release [3] | Zeta potential, mV [4] | # of Protein per PPC particle [5] | Loading capacity (LC), % [6] | Amount of protein encapsulated, μg (Initial dose = 1 mg) [6] | Crosslinking density, % [7] |
| --- | --- | --- | --- | --- | --- | --- | --- | --- | --- |
| cytochrome C | lack of toxicity | 4.3 ± 0.1 nm | ~4 nm | CytC<RNaseA<Lys | – | – | – | – | – |
| lysozyme | – | 3.6 ± 0.4 nm | – | CytC<RNaseA<Lys | – | – | – | – | – |
| B1 | – | 3.3 ± 0.2 nm | – | CytC<RNaseA<Lys | – | – | – | – | – |
| B2 | – | 9.5 ± 0.1 nm | – | – | −8.7 ± 0.7 mV | 18 | 5.5% | 553 µg | 5.1% |
| B3 | – | 9.1 ± 0.1 nm | – | – | −8.2 ± 0.7 mV | 16 | 5.6% | 558 µg | 5.1% |
